Data: publication PMC12447578, “Syndecan-4 interacts directly with β-parvin and regulates the ILK-PINCH-β-parvin complex, the β-parvin-β-PIX-Rac1 axis, and cardiomyocyte geometry in a sex-dependent manner” (Frontiers in Cell and Developmental Biology, 2025)

B1: ILK (S343D): Recombinant mouse 8xHIS-ILK (S343D), custom-made by GenScript (protein)
chain: MDDIFTQCREGNAVAVRLWLDNTENDLNQGDDHGFSPLHWACREGRSAVVEMLIMRGARINVMNRGDDTPLHLAASHGHRDIVQKLLQYKADINAVNEHGNVPLHYACFWGQDQVAEDLVANGALVSICNKYGEMPVDKAKAPLRELLRERAEKMGQNLNRIPYKDTFWKGTTRTRPRNGTLNKHSGIDFKQLNFLAKLNENHSGELWKGRWQGNDIVVKVLKVRDWSTRKSRDFNEECPRLRIFSHPNVLPVLGACQAPPAPHPTLITHWMPYGSLYNVLHEGTNFVVDQSQAVKFALDMARGMAFLHTLEPLIPRHALNSRSVMIDEDMTARISMADVKFDFQCPGRMYAPAWVAPEALQKKPEDTNRRSADMWSFAVLLWELVTREVPFADLSNMEIGMKVALEGLRPTIPPGISPHVCKLMKICMNEDPAKRPKFDMIVPILEKMQDK
modifications: left off: 8xHIS, end not stated, state not stated
notes: Recombinant mouse 8xHIS-ILK (S343D), custom-made by GenScript

Experiments:
[1] = molecular target: Biotin-ahx-SDC4cyt (human, rat and mouse (identical)); assay: SPR; Biacore X100; biotin-ahx-SDC4cyt immobilised on SA chip at 100-200 RU; parvin as analyte 26.5-277.7 nM in Hepes pH 7.4, 150 mM NaCl, 3 mM EDTA, 0.005% Surfactant P20; 30 µL/min, 180 s association, 600 s dissociation; 1:1 Langmuir model
[2] = test system: FL β-parvin 20′mer overlapping peptides; assay: Peptide overlay: 20-mer β-parvin peptides overlaid with recombinant ILK (S343D); assay type: binding, rat; settings: peptide array, O/N, 4°C, ILK antibodies, n = 4 membranes
Excerpt: Full-length (FL) recombinant human C-Myc/DDK-β-parvin was obtained from OriGene (TP308490, Rockville, MD, United States). Recombinant rat 8xHIS-β-parvin (85% purity), rat 8xHIS-α-parvin (85% purity), and mouse 8xHIS-ILK (S343D) (75% purity) were custom-made by GenScript.
The cytoplasmic tail of syndecan-4 (mouse) or FL β-parvin (rat) protein was synthesized as 20′mer overlapping peptides with 3 amino acids offset onto a cellulose membrane by a Multipep automated peptide synthesizer (CEM Corporation, Matthews, NC, United States) ([Frank and Overwin, 1996]). After membrane blocking, antibodies, or a solution with recombinant protein or biotin-ahx-SDC4 were added and incubated O/N at 4°C. Membranes were developed as described for immunoblotting.

Chain of Biotin-ahx-SDC4cyt (human, rat and mouse (identical)) (P31431 171-198): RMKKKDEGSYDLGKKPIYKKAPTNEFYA

Molecule	Kd [1]	koff [1]	kon [1]	ILK binding site in β-parvin (CH2 domain) [2]
Recombinant rat 8xHIS-β-parvin (natural protein)	11.1 nM	8.6e-05 s⁻¹	10000 M⁻¹ s⁻¹	–
B1	–	–	–	bound a few amino acids upstream of the syndecan-4 core binding site
